Here are results for eleven molecules from patent US20190185537A1 (AstraZeneca / MedImmune, published 2019).

The target in one assay is human glucagon receptor (human, UniProt P47871 26-477). Put plainly: cell-based or functional assay.
The target of another assay is human GLP-1 receptor (human, UniProt P43220 24-463). Put plainly: cell-based or functional assay.

Several values for one entry are separate records, joined by “and”; a condition that tells them apart may be missing. Equal values may be shown once. Numbered stars: 1 amine (or outer) side, 2 acyl side, 3 side chain; on linkers, the order of the positions; unused ones are H or OH. Side chains are listed from the residue outwards. Ends that are not written are not given here. * marks the point of attachment. γGlu = O=C(O)[C@H](CCC(=O)[*:2])N[*:1]; Palmitoyl = CCCCCCCCCCCCCCCC(=O)*; Ahx = NCCCCCC(=O)O

human GLP-1 receptor, sequence (P43220 24-463): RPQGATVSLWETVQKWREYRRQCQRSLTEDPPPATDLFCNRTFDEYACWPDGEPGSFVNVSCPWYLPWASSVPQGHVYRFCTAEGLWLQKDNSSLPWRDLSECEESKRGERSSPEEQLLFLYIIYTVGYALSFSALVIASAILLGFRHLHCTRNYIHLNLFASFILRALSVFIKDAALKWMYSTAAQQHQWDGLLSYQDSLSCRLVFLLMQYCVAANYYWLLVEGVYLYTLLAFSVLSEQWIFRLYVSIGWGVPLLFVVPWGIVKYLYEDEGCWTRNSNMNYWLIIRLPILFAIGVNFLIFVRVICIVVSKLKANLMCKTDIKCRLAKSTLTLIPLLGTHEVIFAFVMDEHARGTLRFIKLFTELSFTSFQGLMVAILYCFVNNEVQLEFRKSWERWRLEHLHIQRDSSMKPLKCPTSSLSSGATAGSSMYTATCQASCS
human glucagon receptor, sequence (P47871 26-477): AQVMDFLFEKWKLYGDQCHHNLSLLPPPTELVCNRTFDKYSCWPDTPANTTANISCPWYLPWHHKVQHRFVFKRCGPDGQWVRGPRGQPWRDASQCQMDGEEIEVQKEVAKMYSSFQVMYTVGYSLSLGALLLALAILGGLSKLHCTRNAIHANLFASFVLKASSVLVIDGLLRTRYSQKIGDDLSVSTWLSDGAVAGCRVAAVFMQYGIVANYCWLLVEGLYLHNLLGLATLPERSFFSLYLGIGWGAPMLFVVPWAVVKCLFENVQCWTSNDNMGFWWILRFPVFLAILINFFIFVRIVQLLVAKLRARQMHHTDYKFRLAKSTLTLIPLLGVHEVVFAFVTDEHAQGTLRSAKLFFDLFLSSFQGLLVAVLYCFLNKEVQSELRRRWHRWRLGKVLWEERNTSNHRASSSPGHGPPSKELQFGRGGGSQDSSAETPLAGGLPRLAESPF

B1: g720 (peptide)
peptide: HGQGTFTSDYSRYLDSK([γGlu-Palmitoyl])RARDFVEWLVAGG-NH2
modifications: N-terminus assumed
SMILES: CCCCCCCCCCCCCCCC(=O)N[C@@H](CCC(=O)NCCCC[C@H](NC(=O)[C@H](CO)NC(=O)[C@H](CC(=O)O)NC(=O)[C@H](CC(C)C)NC(=O)[C@H](Cc1ccc(O)cc1)NC(=O)[C@H](CCCNC(=N)N)NC(=O)[C@H](CO)NC(=O)[C@H](Cc1ccc(O)cc1)NC(=O)[C@H](CC(=O)O)NC(=O)[C@H](CO)NC(=O)[C@@H](NC(=O)[C@H](Cc1ccccc1)NC(=O)[C@@H](NC(=O)CNC(=O)[C@H](CCC(N)=O)NC(=O)CNC(=O)[C@@H](N)Cc1c[nH]cn1)[C@@H](C)O)[C@@H](C)O)C(=O)N[C@@H](CCCNC(=N)N)C(=O)N[C@@H](C)C(=O)N[C@@H](CCCNC(=N)N)C(=O)N[C@@H](CC(=O)O)C(=O)N[C@@H](Cc1ccccc1)C(=O)N[C@H](C(=O)N[C@@H](CCC(=O)O)C(=O)N[C@@H](Cc1c[nH]c2ccccc12)C(=O)N[C@@H](CC(C)C)C(=O)N[C@H](C(=O)N[C@@H](C)C(=O)NCC(=O)NCC(N)=O)C(C)C)C(C)C)C(=O)O
On to B1, for which the cAMP EC50 (assay 1) in the assay with human glucagon receptor came out at 352 pM; with human GLP-1 receptor, 0.0534 nM.

B2: g746 (peptide)
peptide: HSQGTFTSDYSKYLDSRRAQDFVK([γGlu-Palmitoyl])WLEAGG-NH2
modifications: N-terminus assumed
SMILES: CCCCCCCCCCCCCCCC(=O)N[C@@H](CCC(=O)NCCCC[C@H](NC(=O)[C@@H](NC(=O)[C@H](Cc1ccccc1)NC(=O)[C@H](CC(=O)O)NC(=O)[C@H](CCC(N)=O)NC(=O)[C@H](C)NC(=O)[C@H](CCCNC(=N)N)NC(=O)[C@H](CCCNC(=N)N)NC(=O)[C@H](CO)NC(=O)[C@H](CC(=O)O)NC(=O)[C@H](CC(C)C)NC(=O)[C@H](Cc1ccc(O)cc1)NC(=O)[C@H](CCCCN)NC(=O)[C@H](CO)NC(=O)[C@H](Cc1ccc(O)cc1)NC(=O)[C@H](CC(=O)O)NC(=O)[C@H](CO)NC(=O)[C@@H](NC(=O)[C@H](Cc1ccccc1)NC(=O)[C@@H](NC(=O)CNC(=O)[C@H](CCC(N)=O)NC(=O)[C@H](CO)NC(=O)[C@@H](N)Cc1c[nH]cn1)[C@@H](C)O)[C@@H](C)O)C(C)C)C(=O)N[C@@H](Cc1c[nH]c2ccccc12)C(=O)N[C@@H](CC(C)C)C(=O)N[C@@H](CCC(=O)O)C(=O)N[C@@H](C)C(=O)NCC(=O)NCC(N)=O)C(=O)O
Regarding B2, the values for the cAMP EC50 (assay 1) with human glucagon receptor and with human GLP-1 receptor were 35.4 pM and 11.5 nM, respectively.

B3: g318 (peptide)
peptide: HSQGTFTSDYSKYLDSRRAQDFVQWLVAGGSSGGSSK(Palmitoyl)-NH2
modifications: N-terminus assumed
SMILES: CCCCCCCCCCCCCCCC(=O)NCCCC[C@H](NC(=O)[C@H](CO)NC(=O)[C@H](CO)NC(=O)CNC(=O)CNC(=O)[C@H](CO)NC(=O)[C@H](CO)NC(=O)CNC(=O)CNC(=O)[C@H](C)NC(=O)[C@@H](NC(=O)[C@H](CC(C)C)NC(=O)[C@H](Cc1c[nH]c2ccccc12)NC(=O)[C@H](CCC(N)=O)NC(=O)[C@@H](NC(=O)[C@H](Cc1ccccc1)NC(=O)[C@H](CC(=O)O)NC(=O)[C@H](CCC(N)=O)NC(=O)[C@H](C)NC(=O)[C@H](CCCNC(=N)N)NC(=O)[C@H](CCCNC(=N)N)NC(=O)[C@H](CO)NC(=O)[C@H](CC(=O)O)NC(=O)[C@H](CC(C)C)NC(=O)[C@H](Cc1ccc(O)cc1)NC(=O)[C@H](CCCCN)NC(=O)[C@H](CO)NC(=O)[C@H](Cc1ccc(O)cc1)NC(=O)[C@H](CC(=O)O)NC(=O)[C@H](CO)NC(=O)[C@@H](NC(=O)[C@H](Cc1ccccc1)NC(=O)[C@@H](NC(=O)CNC(=O)[C@H](CCC(N)=O)NC(=O)[C@H](CO)NC(=O)[C@@H](N)Cc1c[nH]cn1)[C@@H](C)O)[C@@H](C)O)C(C)C)C(C)C)C(N)=O
As to B3, the cAMP EC50 (assay 1) in the assay with human glucagon receptor came to 9040 pM; with human GLP-1 receptor, 1.14 nM.

B4: g787 (peptide)
peptide: HSQGTFTSDYSKYLDSERAK([Ahx-Palmitoyl])DFVAWLERGG-NH2
modifications: not fully specified
For B4, the cAMP EC50 (assay 1) came to 43.6 pM with human glucagon receptor and 6.65 nM with human GLP-1 receptor.

B5: g402 (peptide)
peptide: HSQGTFTSDYSKYLDSRRAQDFVQWLVAGGSGSGSG-NH2
As for B5, the cAMP EC50 (assay 1) with human glucagon receptor was 59.6 pM; with human GLP-1 receptor it was 0.0857 nM.

B6: g736 (peptide)
peptide: HGQGTFTSDYSKYLDSK([γGlu-Palmitoyl])RAADFVAWLVAGG-NH2
modifications: N-terminus assumed
SMILES: CCCCCCCCCCCCCCCC(=O)N[C@@H](CCC(=O)NCCCC[C@H](NC(=O)[C@H](CO)NC(=O)[C@H](CC(=O)O)NC(=O)[C@H](CC(C)C)NC(=O)[C@H](Cc1ccc(O)cc1)NC(=O)[C@H](CCCCN)NC(=O)[C@H](CO)NC(=O)[C@H](Cc1ccc(O)cc1)NC(=O)[C@H](CC(=O)O)NC(=O)[C@H](CO)NC(=O)[C@@H](NC(=O)[C@H](Cc1ccccc1)NC(=O)[C@@H](NC(=O)CNC(=O)[C@H](CCC(N)=O)NC(=O)CNC(=O)[C@@H](N)Cc1c[nH]cn1)[C@@H](C)O)[C@@H](C)O)C(=O)N[C@@H](CCCNC(=N)N)C(=O)N[C@@H](C)C(=O)N[C@@H](C)C(=O)N[C@@H](CC(=O)O)C(=O)N[C@@H](Cc1ccccc1)C(=O)N[C@H](C(=O)N[C@@H](C)C(=O)N[C@@H](Cc1c[nH]c2ccccc12)C(=O)N[C@@H](CC(C)C)C(=O)N[C@H](C(=O)N[C@@H](C)C(=O)NCC(=O)NCC(N)=O)C(C)C)C(C)C)C(=O)O
Turning to B6, the cAMP EC50 (assay 1) was 919 pM and 920 pM with human glucagon receptor; 0.0854 nM with human GLP-1 receptor.

B7: g317 (peptide)
peptide: HSQGTFTSDYSKYLDSRRAQDFVQWLVAGGSSGGSSK-NH2
For B7, the cAMP EC50 (assay 1) with human GLP-1 receptor is 2.63 nM.

B8: g701 (peptide)
peptide: HGQGTFTSDYSK([γGlu-Palmitoyl])YLDSERAQDFVQWLERGG-NH2
modifications: N-terminus assumed
SMILES: CCCCCCCCCCCCCCCC(=O)N[C@@H](CCC(=O)NCCCC[C@H](NC(=O)[C@H](CO)NC(=O)[C@H](Cc1ccc(O)cc1)NC(=O)[C@H](CC(=O)O)NC(=O)[C@H](CO)NC(=O)[C@@H](NC(=O)[C@H](Cc1ccccc1)NC(=O)[C@@H](NC(=O)CNC(=O)[C@H](CCC(N)=O)NC(=O)CNC(=O)[C@@H](N)Cc1c[nH]cn1)[C@@H](C)O)[C@@H](C)O)C(=O)N[C@@H](Cc1ccc(O)cc1)C(=O)N[C@@H](CC(C)C)C(=O)N[C@@H](CC(=O)O)C(=O)N[C@@H](CO)C(=O)N[C@@H](CCC(=O)O)C(=O)N[C@@H](CCCNC(=N)N)C(=O)N[C@@H](C)C(=O)N[C@@H](CCC(N)=O)C(=O)N[C@@H](CC(=O)O)C(=O)N[C@@H](Cc1ccccc1)C(=O)N[C@H](C(=O)N[C@@H](CCC(N)=O)C(=O)N[C@@H](Cc1c[nH]c2ccccc12)C(=O)N[C@@H](CC(C)C)C(=O)N[C@@H](CCC(=O)O)C(=O)N[C@@H](CCCNC(=N)N)C(=O)NCC(=O)NCC(N)=O)C(C)C)C(=O)O
As for B8, the cAMP EC50 (assay 1) in the assay with human glucagon receptor was 3830 pM; in the assay with human GLP-1 receptor, 7.4 nM.

B9: g744 (peptide)
peptide: HSQGTFTSDYSKYLDSRRAK([γGlu-Palmitoyl])DFVQWLEAGG-NH2
modifications: N-terminus assumed
SMILES: CCCCCCCCCCCCCCCC(=O)N[C@@H](CCC(=O)NCCCC[C@H](NC(=O)[C@H](C)NC(=O)[C@H](CCCNC(=N)N)NC(=O)[C@H](CCCNC(=N)N)NC(=O)[C@H](CO)NC(=O)[C@H](CC(=O)O)NC(=O)[C@H](CC(C)C)NC(=O)[C@H](Cc1ccc(O)cc1)NC(=O)[C@H](CCCCN)NC(=O)[C@H](CO)NC(=O)[C@H](Cc1ccc(O)cc1)NC(=O)[C@H](CC(=O)O)NC(=O)[C@H](CO)NC(=O)[C@@H](NC(=O)[C@H](Cc1ccccc1)NC(=O)[C@@H](NC(=O)CNC(=O)[C@H](CCC(N)=O)NC(=O)[C@H](CO)NC(=O)[C@@H](N)Cc1c[nH]cn1)[C@@H](C)O)[C@@H](C)O)C(=O)N[C@@H](CC(=O)O)C(=O)N[C@@H](Cc1ccccc1)C(=O)N[C@H](C(=O)N[C@@H](CCC(N)=O)C(=O)N[C@@H](Cc1c[nH]c2ccccc12)C(=O)N[C@@H](CC(C)C)C(=O)N[C@@H](CCC(=O)O)C(=O)N[C@@H](C)C(=O)NCC(=O)NCC(N)=O)C(C)C)C(=O)O
Regarding B9, the cAMP EC50 (assay 1) with human glucagon receptor came out at 39.2 pM; with human GLP-1 receptor, 2.45 nM.

B10: g325 (peptide)
peptide: HSQGTFTSDYSKYLDSRRAQDFVQWLVAGGGGGGK-NH2
Take B10: the cAMP EC50 (assay 1) with human glucagon receptor stood at 10.3 pM; with human GLP-1 receptor it was 0.0261 nM.

B11: g737 (peptide)
peptide: HGEGTFTSDYSKYLDSK([γGlu-Palmitoyl])RAADFVAWLVAGG-NH2
modifications: N-terminus assumed
SMILES: CCCCCCCCCCCCCCCC(=O)N[C@@H](CCC(=O)NCCCC[C@H](NC(=O)[C@H](CO)NC(=O)[C@H](CC(=O)O)NC(=O)[C@H](CC(C)C)NC(=O)[C@H](Cc1ccc(O)cc1)NC(=O)[C@H](CCCCN)NC(=O)[C@H](CO)NC(=O)[C@H](Cc1ccc(O)cc1)NC(=O)[C@H](CC(=O)O)NC(=O)[C@H](CO)NC(=O)[C@@H](NC(=O)[C@H](Cc1ccccc1)NC(=O)[C@@H](NC(=O)CNC(=O)[C@H](CCC(=O)O)NC(=O)CNC(=O)[C@@H](N)Cc1c[nH]cn1)[C@@H](C)O)[C@@H](C)O)C(=O)N[C@@H](CCCNC(=N)N)C(=O)N[C@@H](C)C(=O)N[C@@H](C)C(=O)N[C@@H](CC(=O)O)C(=O)N[C@@H](Cc1ccccc1)C(=O)N[C@H](C(=O)N[C@@H](C)C(=O)N[C@@H](Cc1c[nH]c2ccccc12)C(=O)N[C@@H](CC(C)C)C(=O)N[C@H](C(=O)N[C@@H](C)C(=O)NCC(=O)NCC(N)=O)C(C)C)C(C)C)C(=O)O
For B11, the cAMP EC50 (assay 1) with human glucagon receptor came out at 734000 pM; in the assay with human GLP-1 receptor it was 0.0814 nM.
